Consider 1 molecule from US20060153851A1, “CLASP proteins” (ARBOR VITA CORPORATION, published 2006).

Assay [1] deals with T1, GST-NeDLG fusion protein (human, UniProt Q92796).
T1 sequence: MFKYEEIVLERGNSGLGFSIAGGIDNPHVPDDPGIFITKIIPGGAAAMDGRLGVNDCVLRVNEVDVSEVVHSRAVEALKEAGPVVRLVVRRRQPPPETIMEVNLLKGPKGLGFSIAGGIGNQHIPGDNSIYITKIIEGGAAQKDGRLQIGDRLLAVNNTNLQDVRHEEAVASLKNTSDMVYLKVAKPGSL
In words: biotinylated peptide titration on plate-bound GST fusion (FIG. 9B). On the procedure: 20 μM biotinylated synthetic peptide corresponding to the C-terminal 20 amino acids of CLASP-2 was reacted with the indicated plate bound GST fusion proteins (none=no GST fusion protein coated onto plate). Error bars indicate standard deviation of duplicate measurements. B. Affinity of CLASP 2-PDZ interactions. Varying concentrations of biotinylated CLASP-2 peptide were reacted with plate bound GST alone, GST-DLG1, GST-NeDLG, and GST-PSD95 fusion proteins. The binding to GST alone (<0.1 OD units) was subtracted from the binding to the fusion proteins and the remaining signal was divided by the signal observed upon addition of 30 μM CLASP-2 peptide to each PDZ domain-containing protein (0.4-1.0 OD units) and plotted. […] Data are means of duplicate data points, with standard errors between duplicate data points <10%. C. Inhibition of CLASP-2-PDZ binding. 5 μM biotinylated synthetic peptide corresponding to the C-terminal 20 amino acids of CLASP-2 was reacted with the indicated, plate-bound PDZ domain-containing GST fusion proteins in the presence or absence of 100 μM competitor peptide. CLASP-2 Inhibitor refers to a synthetic peptide composed of the eight C-terminal amino acids of CLASP-2. […]
The binding of a biotinylated carboxyl-terminal peptide to a GST-PDZ fusion protein is measured as follows: [0470] […]

For assay [2], the target named is T1, GST-NeDLG fusion protein. In words: varying concentrations of biotinylated peptide on plate-bound GST fusion, streptavidin-HRP, fit to a saturation binding curve (FIG. 9B). As for the experimental part: (§1) 20 μM biotinylated synthetic peptide corresponding to the C-terminal 20 amino acids of CLASP-2 was reacted with the indicated plate bound GST fusion proteins (none=no GST fusion protein coated onto plate). Error bars indicate standard deviation of duplicate measurements. B. Affinity of CLASP 2-PDZ interactions. Varying concentrations of biotinylated CLASP-2 peptide were reacted with plate bound GST alone, GST-DLG1, GST-NeDLG, and GST-PSD95 fusion proteins. The binding to GST alone (<0.1 OD units) was subtracted from the binding to the fusion proteins and the remaining signal was divided by the signal observed upon addition of 30 μM CLASP-2 peptide to each PDZ domain-containing protein (0.4-1.0 OD units) and plotted. […] Data are means of duplicate data points, with standard errors between duplicate data points <10%. C. Inhibition of CLASP-2-PDZ binding. 5 μM biotinylated synthetic peptide corresponding to the C-terminal 20 amino acids of CLASP-2 was reacted with the indicated, plate-bound PDZ domain-containing GST fusion proteins in the presence or absence of 100 μM competitor peptide. CLASP-2 Inhibitor refers to a synthetic peptide composed of the eight C-terminal amino acids of CLASP-2. KV1.3 Inhibitor refers to a synthetic peptide composed of the 19 C-terminal amino acids of KV1.3, a lymphocyte potassium channel. The amino acid sequence of the KV1.3 inhibitor is […]. D. Inhibition of KV1.3-PDZ binding. 5 μM biotinylated synthetic peptide corresponding to the C-terminal 19 amino acids of KV1.3 was reacted with the indicated, plate-bound PDZ-domain containing GST fusion proteins in the presence or absence of 100 μM CLASP-2 Inhibitor (see FIG. 9C legend).
(§2) The binding of a biotinylated carboxyl-terminal peptide to a GST-PDZ fusion protein is measured as follows: [0470] (1) GST fusion protein containing one or more PDZ domain(s) is coated onto a protein-binding surface. […]

Assay [3] addresses GST-DLG1 fusion protein (Homo sapiens (Human), UniProt Q12959). The assay is described as above. On the procedure:
as §1, §2

Assay [4] deals with GST-PSD95 fusion protein (Homo sapiens (Human), UniProt P78352). Described as above. On the procedure: as §1, §2

What is called Kd is the constant that tells how readily two partners part at equilibrium. A low value points to a tighter complex.

Bounds are passed on as bounds.

B1: biotinylated synthetic peptide corresponding to the C-terminal 20 amino acids of CLASP-2 (peptide)
peptide: VLHHHQNPEFYDEIKIELPTQLHEKHHLLLTFFHVSCDNSSKGSTKKRDVVETQVGYSWLPLLKDGRVVTSEQHIPVSANLPSGYLGYQELGMGRHYGPEIKWVDGGKPLLKISTHLVSTVYTQDQHLHNFFQYCQKTESGAQALGNELVKYLKSLHAMEGHVMIAFLPTILNQLFRVLTRATQEEVAVNVTRVIIHVVAQCHEEGLESHLRSYVKYAYKAEPYVASEYKTVHEELTKSMTTILKPSADFLTSNKLLRYSWFFFDVLIKSMAQHLIENSKVKLLRNQRFPASYHHAAETVVNMLMPHITQKFGDNPEASKNANHSLAVFIKRCFTFMDRGFVFKQINNYISCFAPGDPKTLFEYKFEFLRVVCNHEHYIPLNLPMPFGKGRIQRYQDLQLDYSLTDEFCRNHFLVGLLLREVGTALQEFREVRLIAISVLKNLLIKHSFDDRYASRSHQARIATLYLPLFGLLIENVQRINVRDVSPFPVNAGMTVKDESLALPAVNPLVTPQKGSTLDNSLHKDLLGAISGIASPYTTSTPNINSVRNADSRGSLISTDSGNSLPERNSEKSNSLDKHQQSSTLGNSVVRCDKLDQSEIKSLLMCFLYILKSMSDDALFTYWNKASTSELMDFFTISEVCLHQFQYMGKRYIARNQEGLGPIVHDRKSQTLPVSRNRTGMMHARLQQLGSLDNSLTFNHSYGHSDADVLHQSLLEANIATEVCLTALDTLSLFTLAFKNQLLADHGHNPLMKKVFDVYLCFLQKHQSETALKNVFTALRSLIYKFPSTFYEGRADMCAALCYEILKCCNSKLSSIRTEASQLLYFLMRNNFDYTGKKSFVRTHLQVIISVSQLIADVVGIGETRFQQSLSIINNCANSDRLIKHTSFSSDVKDLTKRIRTVLMATAQMKEHENDPEMLVDLQYSLAKSYASTPELRKTWLDSMARIHVKNGDLSEAAMCYVHVTALVAEYLTRKGVFRQGCTAFRVITPNIDEEASMMEDVGMQDVHFNEDVLMELLEQCADGLWKAERYELIADIYKLIIPIYEKRRDFFEDEDGKEYIYKEPKLTPLSEISQRLLKLYSDKFGSENVKMIQDSGKVNPKDLDSKYAYIQVTHVIPFFDEKELQERKTEFERSHNIRRFMFEMPFTQTGKRQGGVEEQCKRRTILTAIHCFPYVKKRIPVMYQHHTDLNPIEVAIDEMSKKVAELRQLCSSAEVDMIKLQLKLQGSVSVQVNAGPLAYARAFLDDTNTKRYPDNKVKLLKEVFRQFVEACGQALAVNERLIKEDQLEYQEEMKANYREMAKELSEIMHEQICPLEEKTSVLPNSLHIFNAISGTPTSTMVHGMTSSSSVV
modifications: biotin at the amino-terminus
Molecule B1 yielded a Ka in assay [1] of at least 10000 M⁻¹. The values for the Kd in assay [2], in assay [3] and in assay [4] were 7.5 µM, 21 µM and 45 µM, respectively.
